Measured values as given in the supplement of paper PMC12042874.
± gives the uncertainty stated by the source.

Assay: amyloid nucleation score (Sup35N fusion, yeast selection) (log enrichment); library NNK1; higher = more nucleation; inactive = no reads after selection
Outline: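 Nucleation score is defined as the DiMSum log enrichment of output over input reads, with centring on the mode score of non-aggregating sequences. A minimum of 100 input reads was required for each sequence. Reads came from Illumina sequencing of plasmid inserts from psi-negative yeast expressing Sup35N fused to peptides of 20 random codons, induced with 100 μM copper sulfate for 24 hours and grown 7 days at 30°C on medium lacking adenine and uracil.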

| Substance | amyloid nucleation score |
| --- | --- |
| NLCRSNTRVQNAKKCAL | -0.168 ± 0.26 |
| NLFLMLVDLVSLGTTI | 2.08 ± 0.51 |
| NLGMALRSCMTSTHSVSMW | 0.433 ± 0.47 |
| NLHVQGVTRNGC | 3.84 ± 0.076 |
| NLIWMVKYCYIIFRIPTTCL | 1.77 ± 0.42 |
| NLKCF | 0.905 ± 0.47 |
| NLLFAVMLVFSRVQVVFNNG | -0.355 ± 0.25 |
| NLQVKFVVYIMPLQKD | 0.747 ± 0.44 |
| NLSCIHGLYYGSRLVSGLYQ | 0.15 ± 0.71 |
| NLSTSMSRREIMQQHQHRRL | 0.594 ± 0.64 |
| NLTANVLKVMSRHCNGFWIF | 0.29 ± 0.46 |
| NLTWRGSRDTFECYVDGA | -0.186 ± 0.47 |
| NLYVNN | -0.623 ± 1 |
| NMFAWV | inactive |
| NMGIKVLSKYNVIYYSAGTP | 8.343 ± 0.048 |
| NMINLMGTKVDMYCRRVRGI | -1.53 ± 0.84 |
| NMQTYGGLKE | 0.116 ± 0.71 |
| NMTVITVVSWLCFVRRTHNA | -1.06 ± 0.82 |
| NNGGASVGFWRMPCHWTRMH | -0.371 ± 0.59 |
| NNGKSIPFPGGARKVSLGSG | 0.087 ± 0.26 |
| NNIFGLSIYKYCQGRYCNCS | 8.226 ± 0.055 |
| NNKGSLSPGNLDTSDESEFS | 0.652 ± 0.29 |
| NNLWCSFS | -0.577 ± 0.43 |
| NNMLILFTCGFYYKVYSPVQ | 3.18 ± 0.17 |
| NNMYTNVRVLKGRCLWVY | 0.376 ± 0.28 |

| Substance | amyloid nucleation score |
| --- | --- |
| NNQSTGWCETN | inactive |
| NNVNEVWWA | 0.249 ± 0.69 |
| NPAEL | 0.222 ± 0.54 |
| NPCWTVYLEFL | 0.186 ± 0.27 |
| NPGNTN | 0.17 ± 0.55 |
| NPNMVSRPCRVGRRPFDVGL | -0.022 ± 0.45 |
| NPRVNNYRVNGWKRGIRDRA | 0.66 ± 0.35 |
| NPSIPCPQAACNMWY | 0.819 ± 0.36 |
| NPVRMMRNRLVLGKNCAPRG | -0.024 ± 0.28 |
| NPWLSNFSCK | 0.244 ± 0.47 |
| NQANQSQPCTDSFILRNGVV | inactive |
| NQTSLAILSRSSQGHGTKVY | 0.623 ± 0.95 |
| NRACRMMQWS | -0.441 ± 1.2 |
| NRCRDCREVYIKFPTWAWSW | -0.253 ± 0.43 |
| NRCYMVYKFTV | -0.01 ± 0.33 |
| NRHRRVPFRISTALLPVKLQ | 0.632 ± 0.5 |
| NRIPHGSRRSRAISKVRDA | 0.728 ± 0.97 |
| NRSRWPIHGFLIANKSPLQF | 0.486 ± 0.38 |
| NRVHKADHVTYY | inactive |
| NSAVYSCL | inactive |
| NSCRCYFLLGELDLNAFNSV | 1.74 ± 0.55 |
| NSDLWIGVCAVLSGLMTIIG | 0.509 ± 0.64 |
| NSEISRGGVMGVCAVLLMSF | 0.273 ± 0.97 |
| NSFRWDLTLLLWARINVDSF | 1.49 ± 0.7 |
| NSGGVWSHYFVVVMRYL | 0.083 ± 0.46 |

| Substance | amyloid nucleation score |
| --- | --- |
| NSLKCVRSIVKRYSACHRV | 0.387 ± 0.5 |
| NSPGCKCRSKGLISINST | inactive |
| NSPKYLKLSCSTLLTALLGR | 1.16 ± 0.28 |
| NSRGT | -0.28 ± 0.34 |
| NSRSLFFYDSYVAGWYN | 0.542 ± 0.31 |
| NSSLLDISLYDNLVQGSDWP | -0.249 ± 0.57 |
| NSSVGVESHIFSIVDKMNTW | inactive |
| NSWSFGPSGTQFGLSLFYGL | -0.979 ± 2.7 |
| NTGREVFIRIMCPL | -0.212 ± 0.73 |
| NTLKNCCLYIAVRCNAP | -0.974 ± 1.2 |
| NTTAWPVYFYLWFRKTGWPL | -0.371 ± 0.78 |
| NTYDHMTYNRGFRSM | inactive |
| NVGRSAICVRSCRMSLVFDG | 0.11 ± 0.35 |
| NVLVGFI | -0.851 ± 0.56 |
| NVNETT | -0.547 ± 1.6 |
| NVSLRFGSYPGVNVGSAFMV | -0.109 ± 0.53 |
| NVSSLQDFRVMFWIFECTTR | 0.052 ± 0.44 |
| NVTCSVISNGNLSEFDVFVI | 0.122 ± 0.75 |
| NVVSF | -0.466 ± 1.2 |
| NVYDMFIKFGVGVASSVSAC | -1.48 ± 1.9 |
| NWEWAFRCPLWCLWDYRSTM | 0.751 ± 0.57 |
| NWGWGGEFRRNMFRIVS | inactive |
| NWNFIRRSARVWSR | -1.7 ± 1.2 |
| NWTIHVDNSGHVIRINTHYW | 6.72 ± 0.074 |
| NWVRFIHFYYNGTRLWAEFV | -0.915 ± 0.74 |

| Substance | amyloid nucleation score |
| --- | --- |
| NYCGLGSMYL | 1.1 ± 0.8 |
| NYFNL | 0.21 ± 0.46 |
| NYIVKAFSVVCFTSDTSSFR | 6.08 ± 0.096 |
| NYLGLLSEAVSRGVQLGDAT | inactive |
| NYRIRAWGNNYGHQGATCLR | inactive |
| NYRISAYCDSHVRRLPEYMF | 0.175 ± 0.59 |
| NYRRQLSFLRLSGQDMLEGK | 0.184 ± 0.53 |
| NYSYSFIPRSKVNGYEYGGA | -0.387 ± 0.32 |
| NYTNTMWSSFLDYVVD | 0.272 ± 0.88 |
| NYVYR | -0.742 ± 1.2 |
| NYVYSSVVGLLIW | -0.077 ± 0.19 |
| NYYCRDVI | 0.392 ± 0.3 |
| NYYLECWYSCMGNTETSSKG | 0.212 ± 0.53 |
| NYYLVCCCKREQRLCTVGIT | 6.831 ± 0.064 |
| PAFFCFWNNLSCVSTWSYLV | 2.44 ± 0.088 |
| PALLEIQWSSCGV | -0.02 ± 0.72 |
| PALNILNHYLLCKDPLFVRV | 0.348 ± 0.37 |
| PAMSVGQRFYGEQHSCGLSA | -0.583 ± 0.43 |
| PCFRTYDCAISNLAVASRCR | 1.03 ± 0.37 |
| PCSVVV | -0.246 ± 0.32 |
| PCWLQMSCR | -0.148 ± 0.79 |
| PCYWQPPRRVAVATLSAAAL | -0.312 ± 0.49 |
| PDFIHFY | 0.182 ± 0.38 |
| PFFTIKWCNFSSFIGYEPLL | -0.161 ± 0.31 |
| PFGDSAPKTIRIMAVLIFTV | -0.237 ± 1.9 |

| Substance | amyloid nucleation score |
| --- | --- |
| PFTRVGLDMYLDDSVKKGWD | -0.528 ± 0.36 |
| PFVGTIFVSGSGTSMENGIC | -0.601 ± 0.47 |
| PGEVRW | -0.385 ± 1.9 |
| PGKSLIIHMCFSMSKTTENG | 2.52 ± 0.08 |
| PGYSVPFSCGDQVPQQLPIR | -0.538 ± 2.1 |
| PHMMELSVDTKGNVLKVGSH | 0.055 ± 0.52 |
| PHPVVLASLSIDWVPRCSES | -0.179 ± 1 |
| PIHDLRKLIYVTPEFYWGFY | 0.561 ± 0.48 |
| PIIVDRCCFDYIRRVNVLYN | 0.677 ± 0.48 |
| PILKQNHWRDFGNCLAKRRE | -0.281 ± 0.82 |
| PINGEGSVSTLNDMVLSRSI | 1.26 ± 0.81 |
| PIRVM | -0.495 ± 0.43 |
| PISCFTDHMQMFMRSNGRGL | 1.16 ± 0.29 |
| PKFAHILTHGVSHMQWTVVK | 0.06 ± 0.35 |
| PKKLRMYLPMHLSTPKRRLV | 0.565 ± 0.58 |
| PKRPMWLIQET | -0.571 ± 0.61 |
| PKVFIEKAAIYIFAL | 0.029 ± 0.51 |
| PLIITTMFGASVRESFHVVL | 1.21 ± 0.4 |
| PLSILRKMAGVVSGCTAPTS | 0.663 ± 0.7 |
| PLTNRNIKIHYDLLSDDKMV | 0.602 ± 0.26 |
| PLVVGRVCEGYRRWCWFGRR | -0.369 ± 0.38 |
| PMLVQLLEASWVKPVLDCIY | inactive |
| PMMMKIVKHDIVFSLEFHLI | inactive |
| PMPSLECNGVHFIKGIRLTL | 0.754 ± 0.99 |
| PNCDAYWVNWFKLRCLSHLF | -0.489 ± 1.7 |

| Substance | amyloid nucleation score |
| --- | --- |
| PNLPGSKDNLTDRF | 0.488 ± 1.2 |
| PNSERREAMVIMFRW | 0.633 ± 0.35 |
| PNTSEWTDWCRVLVEWGQGS | 0.394 ± 0.18 |
| PNTYGGIMECYV | -0.233 ± 0.42 |
| PPRYLMRDLTHWSPYR | 1.34 ± 0.7 |
| PQKLQGQIGCR | -0.549 ± 0.47 |
| PQLTRSGQ | -0.14 ± 0.28 |
| PQRQFDLIVD | 0.563 ± 0.81 |
| PQSFWNARCPCPLNRLNGVW | -0.474 ± 0.34 |
| PREVVAQKHCSLLQFDLLYS | -0.556 ± 0.48 |
| PRFKTMVVTHFLSFNFYGWN | -0.505 ± 0.39 |
| PRGVFYCLCYLVTCLAEFYE | -0.311 ± 0.36 |
| PRHFVKVIEAPASLLIVYHG | -1.02 ± 1.8 |
| PRIRSPEMDVMSPPNFLWGL | 0.213 ± 0.48 |
| PRKACTIGWLGSINLERGEE | -0.681 ± 0.74 |
| PRLMLYCSLYDIESFIIGRC | inactive |
| PRTTMMAINQVLTGTLEASW | -1.01 ± 0.95 |
| PSALFFSVTLKVHINLAISS | 0.431 ± 0.53 |
| PSFHICL | -0.489 ± 0.41 |
| PSGVCSIVVFKCLRRVMSSL | 0.353 ± 0.35 |
| PSGWTFSRGLSCDNVSRLSS | 1.05 ± 0.61 |
| PSMEWWGL | 0.158 ± 0.88 |
| PSSYF | 0.45 ± 0.47 |
| PSTDLWWLGNTLSIGNRIVY | -0.879 ± 0.69 |
| PSYLCYVIPPPCINLVPMYP | -0.177 ± 0.23 |

| Substance | amyloid nucleation score |
| --- | --- |
| PTFAADSEGHS | 0.085 ± 0.63 |
| PTTFVENIAWRRGSTSCLCG | inactive |
| PVCGFRRWKCLPN | 0.318 ± 0.66 |
| PVFGGNGWLGYGWNWRSHLG | 0.383 ± 0.49 |
| PVMFVDSMSVWVLLVCYRR | 0.19 ± 0.74 |
| PVQDGSLGCQSHYCSRYCYV | -0.129 ± 0.46 |
| PVSDLVIFLQLRFRNTCMLP | 0.952 ± 0.92 |
| PWQRSSCLGTLVLVTNYDRY | 0.058 ± 0.44 |
| PWTSHVNFRSSGYLSNCLNF | -0.145 ± 0.64 |
| PWYKSLSRPSGGKTVLLRNM | -0.113 ± 0.43 |
| PYDYRI | -0.503 ± 0.46 |
| PYVGPLMNFYHSMGMWWMYN | inactive |
| QALYSCDDYRGYRTSQCPRS | -1.13 ± 1.9 |
| QARSGPTPLTTWRTRQVTLG | -0.178 ± 0.51 |
| QCDVS | inactive |
| QCGEICLCRSAGVVHSPRGW | -0.513 ± 0.55 |
| QCIPLLAGSYCAQML | 0.914 ± 0.14 |
| QCVFYMWVSFEELK | 0.418 ± 0.97 |
| QDLICVFMGCVIS | 7.942 ± 0.044 |
| QFESIGCVEWYMFGIREVFS | -0.318 ± 0.47 |
| QFRICVAPEFFGRKSLRASD | 0.445 ± 1.2 |
